Tests used:
7-subunit coreTFIIH = target: T1, 7-subunit coreTFIIH (Saccharomyces cerevisiae | yeast, UniProt Q00578 1-843; P06839 1-778; P32776 1-642; Q02939 1-513; Q04673 1-461; Q12004 …); test: co-sedimentation; factor challenge: Rad2 added (~6-fold molar excess) to TFIIH/Rad4–23–33/AAF-DNA with ATP, 60 min, then 10–40% glycerol gradient (150 mM potassium acetate, 2 mM ATP), 4 °C; SDS-PAGE and densitometry; details: both partners purified
T1 construct: Ssl2 (XPB homologue), ATPase/translocase subunit of yeast coreTFIIH; printed numbering runs to residue 843; Rad3 (XPD homologue), helicase subunit of yeast coreTFIIH; Tfb1 (p62 homologue), subunit of yeast coreTFIIH; Tfb2 (p52 homologue), subunit of yeast coreTFIIH; Ssl1 (p44 homologue), subunit of yeast coreTFIIH; Tfb4 (p34 homologue), subunit of yeast coreTFIIH; Tfb5 (p8 homologue), subunit of …

coreTFIIH (7 subunits) = coreTFIIH (7 subunits) (Saccharomyces cerevisiae? (yeast, tfb6 …, UniProt Q00578;P06839;P32776;Q02939;Q04673;Q12004;Q3E7C1 …)); test: glycerol gradient sedimentation; ATP; EMSA: 20 mM HEPES, 100 mM K-acetate, 2 mM Mg-acetate, 5 mM DTT, room temperature 20 min, 250 nM each component, 0.2x TBE agarose gel at 4 C (pH not stated in this buffer); details: protein: native; tags: TAP tags on Tfb4 and Ssl2; TEV-treated; copies: 1;1;1;1;1;1;1; label: 32P 5' end (T4 PNK) in EMSA; 5' overhang on strand 1: 9 nt from printed strands (text says 10 nt)
[1] = target: T2, 10-subunit holoTFIIH (coreTFIIH with TFIIK: Kin28–Ccl1–Tfb3) (Saccharomyces cerevisiae | yeast, UniProt Q00578 1-843; P06839 1-778; P32776 1-642; Q02939 1-513; Q04673 1-461; Q12004 …); test: co-sedimentation; 10–40% glycerol gradient (20 mM HEPES, 150 mM potassium acetate, 2 mM magnesium acetate, 4 mM DTT, 2 mM ATP or AMP-PNP), 52,000 rpm 6 h 35 min, 4 °C; Rad4–Rad23–Rad33 pre-assembled on −24*/+24 AAF-DNA, then added to TFIIH; fractions by SDS-PAGE; details: both partners purified
T2 construct: Ssl2 (XPB homologue), subunit of yeast TFIIH; Rad3 (XPD homologue), subunit of yeast TFIIH; Tfb1 (p62 homologue), subunit of yeast TFIIH; Tfb2 (p52 homologue), subunit of yeast TFIIH; Ssl1 (p44 homologue), subunit of yeast TFIIH; Tfb4 (p34 homologue), subunit of yeast TFIIH; Tfb5 (p8 homologue), subunit of yeast TFIIH; Kin28, kinase subunit of yeast TFIIK; Ccl1, cyclin subunit of yeast TFIIK; …

B1: Rad2 (natural protein, yeast, UniProt P07276 1-1031, looked up)
chain: MGVHSFWDIAGPTARPVRLESLEDKRMAVDASIWIYQFLKAVRDQEGNAVKNSHITGFFRRICKLLYFGIRPVFVFDGGVPVLKRETIRQRKERRQGKRESAKSTARKLLALQLQNGSNDNVKNSTPSSGSSVQIFKPQDEWDLPDIPGFKYDKEDARVNSNKTFEKLMNSINGDGLEDIDLDTINPASAEFEELPKATQYLILSSLRLKSRLRMGYSKEQLETIFPNSMDFSRFQIDMVKRRNFFTQKLINTTGFQDGGASKLNEEVINRISGQKSKEYKLTKTNNGWILGLGANDGSDAQKAIVIDDKDAGALVKQLDSNAEDGDVLRWDDLEDNSLKIVRHESSNATTAPQKRSNRSEDEGCDSDECEWEEVELKPKNVKFVEDFSLKAARLPYMGQSLNNAGSKSFLDKRHDQASPSKTTPTMRISRISVEDDDEDYLKQIEEIEMMEAVQLSKMEKKPEADDKSKIAKPVTSKGTEARPPIVQYGLLGAQPDSKQPYHVTNLNSKSESVIKRTSKTVLSEFRPPSQQEDKGAILTEGEQNLNFISHKIPQFDFNNENSLLFQKNTESNVSQEATKEKSPIPEMPSWFSSTASQQLYNPYNTTNFVEDKNVRNEQESGAETTNKGSSYELLTGLNATEILERESEKESSNDENKDDDLEVLSEELFEDVPTKSQISKEAEDNDSRKVESINKEHRKPLIFDYDFSEDEEDNIVENMIKEQEEFDTFKNTTLSTSAERNVAENAFVEDELFEQQMKDKRDSDEVTMDMIKEVQELLSRFGIPYITAPMEAEAQCAELLQLNLVDGIITDDSDVFLFGGTKIYKNMFHEKNYVEFYDAESILKLLGLDRKNMIELAQLLGSDYTNGLKGMGPVSSIEVIAEFGNLKNFKDWYNNGQFDKRKQETENKFEKDLRKKLVNNEIILDDDFPSVMVYDAYMRPEVDHDTTPFVWGVPDLDMLRSFMKTQLGWPHEKSDEILIPLIRDVNKRKKKGKQKRINEFFPREYISGDKKLNTSKRISTATGKLKKRKM
notes: Rad2 (XPG homologue), yeast; plasmid pGVD52-RAD2HisSumo; also called yeast homolog of XPG; source: E. coli Rosetta(DE3), purified (HisTrap, Ulp1 cleavage, HisTrap flow-through, Heparin HP)
percent of TFIIH dissociated from Rad4–Rad23–Rad33 and bound to Rad2 (Rad2 in ~6-fold molar excess, ATP) (7-subunit coreTFIIH): ~50%

B2: -24*/+24 AAF (dsDNA)
DNA 1: CCCATTCCAACCATCCCACTACCTGTCCATCTTCACTCAACTATCACCC
DNA 2: GGGTGATAGTTGAGTGAAGATGGACAGGTAGTGGGATGGT
modifications: N-2-acetylaminofluorene adduct on the single G of strand 1 (nt 25, position 0)
binding result (coreTFIIH (7 subunits)): binds

B3: Rad4–Rad23–Rad33 complex (complex, yeast)
chain 1: MNEDLPKEYFELIRKALNEKEAEKAPLSRRRRVRRKNQPLPDAKKKFKTGLNELPRESVVTVNLDSSDDGVVTVPTDDSVEEIQSSEEDYDSEEFEDVTDGNEVAGVEDISVEIKPSSKRNSDARRTSRNVCSNEERKRRKYFHMLYLVCLMVHGFIRNEWINSKRLSRKLSNLVPEKVFELLHPQKDEELPLRSTRKLLDGLKKCMELWQKHWKITKKYDNVGLYMRTWKEIEMSANNKRKFKTLKRSDFLRAVSKGHGDPDISVQGFVAMLRACNVNARLIMSCQPPDFTNMKIDTSLNGNNAYKDMVKYPIFWCEVWDKFSKKWITVDPVNLKTIEQVRLHSKLAPKGVACCERNMLRYVIAYDRKYGCRDVTRRYAQWMNSKVRKRRITKDDFGEKWFRKVITALHHRKRTKIDDYEDQYFFQRDESEGIPDSVQDLKNHPYYVLEQDIKQTQIVKPGCKECGYLKVHGKVGKVLKVYAKRDIADLKSARQWYMNGRILKTGSRCKKVIKRTVGRPKGEAEEEDERLYSFEDTELYIPPLASASGEITKNTFGNIEVFAPTMIPGNCCLVENPVAIKAARFLGVEFAPAVTSFKFERGSTVKPVLSGIVVAKWLREAIETAIDGIEFIQEDDNRKEHLLGALESWNTLLLKLRIRSKLNSTYGKIAEEEPNVTKEQNIADNHDNTETFMGGGFLPGIANHEARPYSEPSEPEDSLDYVSVDKAEESATDDDVGEDYSDFMKELEMSEESD
chain 2: MVSLTFKNFKKEKVPLDLEPSNTILETKTKLAQSISCEESQIKLIYSGKVLQDSKTVSECGLKDGDQVVFMVSQKKSTKTKVTEPPIAPESATTPGRENSTEASPSTDASAAPAATAPEGSQPQEEQTATTERTESASTPGFVVGTERNETIERIMEMGYQREEVERALRAAFNNPDRAVEYLLMGIPENLRQPEPQQQTAAAAEQPSTAATTAEQPAEDDLFAQAAQGGNASSGALGTTGGATDAAQGGPPGSIGLTVEDLLSLRQVVSGNPEALAPLLENISARYPQLREHIMANPEVFVSMLLEAVGDNMQDVMEGADDMVEGEDIEVTGEAAAAGLGQGEGEGSFQVDYTPEDDQAISRLCELGFERDLVIQVYFACDKNEEAAANILFSDHAD
chain 3: MSKSTNVSYERVELFENPKVPIEVEDEILEKYAESSLDHDMTVNELPRFFKDLQLEPTIWKLVRNEDVIIEGTDVIDFTKLVRCTCQLLILMNNLTVIDDLWSMLIRNCGRDVDFPQVALRDHVLSVKDLQKISNLIGADQSSGTIEMISCATDGKRLFMTYLDFGCVLGKLGYLKM
notes: Rad4 (XPC homologue), yeast; Rad23 (RAD23B homologue), yeast; Rad33 (CETN2 homologue), yeast; plasmid pETDuet-RAD33; also called Rad4–23–33; yeast homologue of XPC–RAD23B–CETN2; copies: + +
binding result [1]: binds

Reference: PMC8184850, “Cryo-EM structure of TFIIH/Rad4–Rad23–Rad33 in damaged DNA opening in nucleotide excision repair” (Nature Communications, 2021)
